Results from publication PMC8562849 (The Journal of Cell Biology, 2021).
Blank lines part the entries; values can stand above or below the molecule they belong to.

What was measured:
Pin1 (GST-Pin1) = Pin1 (GST-Pin1) (UniProt Q13526); assay: GST-Pin1 pull-down from U2OS lysate; settings: reference: SST-MTAP (wild type); sites S398,S405,T408
spindly = spindly (UniProt Q96EA4); assay: SBP affinity purification, immunoblot; settings: reference: SST-MTAP, sites S398,S405,T408
[1] = molecular target: GST-tagged Pin1 (prolyl isomerase interacting NIMA 1) (UniProt Q13526 1-163); assay: pull-down

Molecule: hLIC1 (dynein light intermediate chain 1) (from UniProt Q9Y6G9) AAA-MTAP
binding against the reference (Pin1 (GST-Pin1)): weaker

Molecule: hLIC1 (dynein light intermediate chain 1) (from UniProt Q9Y6G9) AAA-MTAP, prometaphase lysate
binding against the reference (spindly; prometaphase lysate): weaker

Continued, values first:

binding against the reference (spindly; metaphase lysate): weaker
Molecule: hLIC1 (dynein light intermediate chain 1) (from UniProt Q9Y6G9) AAA-MTAP, metaphase lysate

binding result [1]: binds
B1: purified rLIC1-CTD (aa 389-523), phosphorylated in vitro by cdk1-cyclin B (domain or fragment, rat, UniProt Q9QXU8 389-523, looked up)
chain: TAAGRPVDASPRVPGGSPRTPNRSVSSNVASVSPIPAGSKKIDPNMKAGATSEGVLANFFNSLLSKKTGSPGGPGVGGSPGGGAAGASTSLPPSAKKSGQKPVLSDVHAELDRITRKPASVSPTTPPSPTEGEAS
modifications: phosphorylated in vitro by cdk1-cyclin B (three cdk1 sites S398, S405, T408)
